In US20040202665A1, “Compositions and methods for therapeutic treatment” (priority 2002, published 2004):

B1: L32: scFv antibody fragment of SEQ ID NO:3, screened against a leukemia cell (protein, listed as Homo sapiens)
scFv: MKYLLPTAAAGLLLLAAQPAMAEVQLVESGGGVVRPGGSLRLSCAASGFTFDLNPKVKHMWVRQAPGKGLEWVSGINWNGGSTGYADSVKGRFTISRDNAKNSLYLQMNSERAEDTAVYYCARMRAPVIWGQGTLVTVSRGGGGSGGGGSGGGGSSELTQDPAVSVALGQTVRITCQGDSLRSYYASWYQQKPGQAPVLVIYGKNNRPSGIPDRFSGSSSGNTASLTITGAQAEDEADYYCNSRDSSGNHVVFGGGTKLTVLGAAAEQKLISEEDLNGAA
B2: Y1: human scFv antibody fragment of SEQ ID NO: 1, selected from a phage library on fixed human platelets (protein, listed as Homo sapiens)
scFv: MKYLLPTAAAGLLLLAAQPAMAEVQLVESGGGVVRPGGSLRLSCAASGFSFDDYGMSWVRQAPGKGLEWVSGINWNGGSTGYADSVKGRFTISRDNAKNSLYLQMNSLRAEDTAVYYCARMRAPVIWGQGTLVTVSRGGGGSGGGGSGGGGSSELTQDPAVSVALGQTVRITCQGDSLRSYYASWYQQKPGQAPVLVIYGKNNRPSGIPDRFSGSSSGNTASLTITGAQAEDEADYYCNSRDSSGNHVVFGGGTKLTVLGAAAEQKLISEEDLNGAA

Key:
[1] = tested on: MOLT-4 (T leukemia) cells; experiment: Survival of MOLT-4 tumor-bearing mice after doxorubicin and Y1; type: in vivo; conditions: MOLT-4 tumor-bearing SCID mice; for survival of tumor-bearing mice (FIG. 1): 2 mg Dox/kg i.v. 1x/wk and/or 0.1 mg Y1 scFv/mouse i.v. 3x/wk, relative to control
Procedure: The present example examines the interaction between chemotherapy treatment and Y1 in the MOLT-4 tumor-bearing mice.
Initially, SCID mice (Jackson) were pretreated with 100 mg/kg CTX (Cytoxan-cyclophosphamid for injection, Mead Johnson). Five days after CTX injection, MOLT-4 (T leukemia) cells were inoculated intravenously (i.v.) through the tail vein with 2×10^7 cells. Mice were randomly divided into 5 treatment groups (13 per group), and they were treated, beginning 5 days after cell inoculation, as indicated in the table below. Tumor-bearing mice were treated for two weeks with sub-optimal dose of doxorubicin (Dox), in combination with Y1 given either concomitantly or after the Dox course of treatment. The response to the therapies was monitored as survival. As described above, the experimental groups were as follows: […]

platelets [2] = experiment: Binding to platelets
platelets [3] = experiment: Platelet aggregation; type: cell-based
leukemic cells = experiment: Binding to leukemic cells
[4] = tested on: primary leukemia cells derived from either AML or multiple myeloma (MM) patients; experiment: Affinity of Y1 to primary leukemia cells; type: binding

Molecule	survival of tumor-bearing mice (FIG. 1) [1]	mean survival time (MST) ([1]; sub-optimal dose 2 mg Dox/kg i.v., 2 doses, 1x/wk, beginning day 5 post inoculation, control 39.08±0.8 days) [days]	binding to platelets (platelets [2])	effect on platelet aggregation (platelets [3])	affinity of binding to leukemic cells relative to Y1 (leukemic cells)	affinity to primary leukemia cells relative to glycocalicin, fibrinogen-gamma prime, complement compound 4 and PSGL-1 epitopes [4]
COc1cccc2c1C(=O)c1c(O)c3c(c(O)c1C2=O)C[C@@](O)(C(=O)CO)C[C@@H]3O[C@H]1C[C@H](N)[C@H](O)[C@H](C)O1 [Dox, doxorubicin]	negative effect	33.5 ± 1.68				
B1			does not bind platelets	does not affect platelet aggregation	approximately five times greater affinity than Y1	
B2	dramatic effect					several magnitudes higher
